# Data from paper PMC4569848 (Nature Communications, 2015).
# Substitutions are numbered along the chain they refer to. Numbers in names are those of the source.
# T1: GST-clathrin 1–494 (human, UniProt Q00610 1-494)
# T1 construct: clathrin, human, residues 1-494, in pGEX-6P1; source: E. coli BL21, purified (glutathione-Sepharose 4B, eluted with GSH); not shown: GST, N-terminal, kept
# T1 sequence (looked up): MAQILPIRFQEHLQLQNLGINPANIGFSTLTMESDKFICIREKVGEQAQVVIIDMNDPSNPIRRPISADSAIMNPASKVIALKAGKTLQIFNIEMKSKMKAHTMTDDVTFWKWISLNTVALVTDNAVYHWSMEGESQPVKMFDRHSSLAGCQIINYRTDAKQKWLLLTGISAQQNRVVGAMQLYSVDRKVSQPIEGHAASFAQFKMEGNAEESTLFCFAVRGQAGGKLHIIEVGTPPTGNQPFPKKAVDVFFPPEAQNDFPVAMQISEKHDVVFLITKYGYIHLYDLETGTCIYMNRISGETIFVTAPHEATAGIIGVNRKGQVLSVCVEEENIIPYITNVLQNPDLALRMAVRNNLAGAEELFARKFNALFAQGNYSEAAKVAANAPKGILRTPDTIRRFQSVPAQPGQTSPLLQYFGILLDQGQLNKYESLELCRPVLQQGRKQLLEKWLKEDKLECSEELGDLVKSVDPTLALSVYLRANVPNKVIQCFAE
# B1: β-arrestin-1 wild type (natural protein, bovine, UniProt P17870 1-418, looked up)
# chain: MGDKGTRVFKKASPNGKLTVYLGKRDFVDHIDLVEPVDGVVLVDPEYLKERRVYVTLTCAFRYGREDLDVLGLTFRKDLFVANVQSFPPAPEDKKPLTRLQERLIKKLGEHAYPFTFEIPPNLPCSVTLQPGPEDTGKACGVDYEVKAFCAENLEEKIHKRNSVRLVIRKVQYAPERPGPQPTAETTRQFLMSDKPLHLEASLDKEIYYHGEPISVNVHVTNNTNKTVKKIKISVRQYADICLFNTAQYKCPVAMEEADDTVAPSSTFCKVYTLTPFLANNREKRGLALDGKLKHEDTNLASSTLLREGANREILGIIVSYKVKVKLVVSRGGLLGDLASSDVAVELPFTLMHPKPKEEPPHREVPEHETPVDTNLIELDTNDDDIVFEDFARQRLKGMKDDKEEEEDGTGSPRLNDR
# notes: β-arrestin-1, bovine, full-length wild-type cDNA in pET22b; also called β-arrestin-1-WT; WT; source: E. coli BL21, purified (Ni-NTA, Superdex 200)
# B2: β-arrestin-1-V8-F2Y (natural protein, bovine, UniProt P17870 1-418, looked up)
# chain: B1 chain with V8Y
# modifications: 3,5-difluorotyrosine (F2Y) at 8
# notes: β-arrestin-1, bovine, full-length cDNA in pET22b, amber codon at V8 read as F2Y; source: E. coli BL21 (DE3) with pEVOL-F2YRS and F2Y in the medium, purified (Ni-NTA, gel filtration)
# B3: β-arrestin-1 (bovine, full-length wild type, C-terminal His tag) (natural protein, UniProt P17870 1-418, looked up)
# chain: B1 chain
# notes: β-arrestin-1, bovine, full-length wild-type cDNA in pET22b; also called native β-arrestin-1; wild-type β-arrestin-1; source: E. coli BL21, purified (Ni-NTA, Superdex 200)
# What was measured:
# Settings in all cases: both partners purified
# GST-clathrin 1–494 [1] = biological target: T1, GST-clathrin 1–494; assay: pull-down; GST-clathrin pull-down of β-arrestin-1 with V2Rpp at protein:V2Rpp ratios 1:0, 1:0.03, 1:0.3, 1:3 and 1:9; western blot for β-arrestin-1, densitometry
# GST-clathrin 1–494 [2] = biological target: T1, GST-clathrin 1–494; assay: pull-down; β-arrestin-1-F2Y mutants (300 nM) incubated with equal concentrations of GST-clathrin and V2R-phospho-peptide (V2Rpp), or without peptide; pulled down with GST beads; bound β-arrestin-1 detected by western blot with a β-arrestin-1 antibody
# [3] = biological target: T2, GST-SRC3D (SRC-SH2-SH3-kinase-three domain) (chicken, UniProt P00523 87-531); assay: pull-down; GST pull-down; 300 nM β-arrestin-1 first mixed with phosphopeptide (equal concentration) 30 min at room temperature in 20 mM Tris-HCl pH 8.0, 150 mM NaCl, 2 mM EDTA, 1 mM DTT; then 10 μM GST-clathrin or GST-SRC 1 h; GST beads 2 h at 4 °C; blot with a β-arrestin-1 antibody
# T2 construct: c-SRC, chicken, residues 87-531, containing SH3, SH2 and catalytic domains; source: E. coli BL21, purified (glutathione-Sepharose 4B, eluted with GSH); not shown: GST, N-terminal, kept
binder,measurement,setting,value
B1,binding result,GST-clathrin 1–494 [1],binds
B2,binding result,GST-clathrin 1–494 [2],binds
B3,binding result,[3],binds
